According to PMC9563011:

Target: IL-2Rα Fc tag (UniProt P01589)
Chain of UniProt P01589 (P01589 22-240): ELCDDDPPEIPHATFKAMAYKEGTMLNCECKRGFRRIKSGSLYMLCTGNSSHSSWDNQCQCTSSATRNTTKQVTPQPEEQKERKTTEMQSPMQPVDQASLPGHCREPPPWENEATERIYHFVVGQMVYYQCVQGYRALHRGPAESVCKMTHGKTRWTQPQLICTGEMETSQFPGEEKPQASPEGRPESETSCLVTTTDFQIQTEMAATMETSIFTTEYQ

**Q.** “IL-2K35C (from UniProt P60568 22-153) (ligand)” was tested. Which EC50 of CTLL-2 cell proliferation (CellTiter-Glo, 48 h, 50 to 0.002 ng/mL) did it give?
**A.** 0.014 µg/mL
